Experimental findings from paper doi:10.1101/2024.05.01.592117 (2024) are described below.

The target of assay [1] is 43S preinitiation complex (40S + eIFs 1, 1A, 5, 3j, eIF2-TC and eIF3) (human, UniProt P23396 1-243; P41567 1-113; P47813 1-144; P55010 1-431; O75822 1-258; P55884 …). In words: FP.
The target in assay [2] is T1, 40S small ribosomal subunit (salt-washed, purified) (human, UniProt P23396 1-243). The experiment in a line: FP.
For assay [3], the target named is T1, 40S small ribosomal subunit …. In words: FP; 40S with eIF1 and eIF1A.

B1: fluorescence-labeled Pdcd4-NTD (FL-Pdcd4-NTD, residues 1-156) (domain or fragment)
chain: MDVENEQILNVNPADPDNLSDSLFSGDEENAGTEEIKNEINGNWISASSINEARINAKAKRRLRKNSSRDSGRGDSVSDSGSDALRSGLTVPTSPKGRLLDRRSRSGKGRGLPKKGGAGGKGVWGTPGQVYDVEEVDVKDPNYDDDQENCVYETVV
modifications: fluorescein-5-maleimide on the single cysteine C150
Take B1: the values for the Kd in assay [1], in assay [2] and in assay [3] were about 3000 nM, about 5 nM and 71 nM, respectively.

As usually defined, the Kd is the concentration at which binding is half-saturated.
